No end group written: not given here.
How the values were obtained:
Experiment in all cases: phage ELISA
BSA = target: T1, BSA (UniProt P02769 25-607)
T1 construct: Negative control target; also called bovine serum albumin
Procedure: (§1) Wells of a 96-well microplate (Nunc, Maxisorp) were either coated with human Fc fragment solution or streptavidin as negative control. The wells were blocked with BSA and contacted with amplified population of each individual clone. Bound phages were detected by the addition of horseradish peroxidase (HRP)-conjugated anti-M13 monoclonal antibodies using the chromogenic substrate (3,3′,5,5′-tetramethylbenzidine (TMB)) solution, and absorbance at 450 nm was measured.
(§2) The binding activity of phage clone displaying the minimized peptide SEQ ID NO: 2, was further evaluated by phage ELISA (as described above) using different subclasses of native human IgGs and different therapeutic monoclonal antibodies. BSA, avidin and SA were used as targets in negative control wells.

avidin = target: T2, avidin (UniProt P02701 25-152)
T2 construct: Negative control target
Procedure: as §1, §2

streptavidin = target: T3, streptavidin (UniProt P22629 37-163, limits assumed)
T3 construct: Negative control target; also called SA
Procedure: as §1, §2

Measured: binding result

T2 sequence (P02701 25-152 limits assumed): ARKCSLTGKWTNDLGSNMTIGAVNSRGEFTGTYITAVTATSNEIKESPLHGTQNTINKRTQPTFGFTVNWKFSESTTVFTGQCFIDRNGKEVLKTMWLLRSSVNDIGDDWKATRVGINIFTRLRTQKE
T1 sequence (P02769 25-607 limits assumed): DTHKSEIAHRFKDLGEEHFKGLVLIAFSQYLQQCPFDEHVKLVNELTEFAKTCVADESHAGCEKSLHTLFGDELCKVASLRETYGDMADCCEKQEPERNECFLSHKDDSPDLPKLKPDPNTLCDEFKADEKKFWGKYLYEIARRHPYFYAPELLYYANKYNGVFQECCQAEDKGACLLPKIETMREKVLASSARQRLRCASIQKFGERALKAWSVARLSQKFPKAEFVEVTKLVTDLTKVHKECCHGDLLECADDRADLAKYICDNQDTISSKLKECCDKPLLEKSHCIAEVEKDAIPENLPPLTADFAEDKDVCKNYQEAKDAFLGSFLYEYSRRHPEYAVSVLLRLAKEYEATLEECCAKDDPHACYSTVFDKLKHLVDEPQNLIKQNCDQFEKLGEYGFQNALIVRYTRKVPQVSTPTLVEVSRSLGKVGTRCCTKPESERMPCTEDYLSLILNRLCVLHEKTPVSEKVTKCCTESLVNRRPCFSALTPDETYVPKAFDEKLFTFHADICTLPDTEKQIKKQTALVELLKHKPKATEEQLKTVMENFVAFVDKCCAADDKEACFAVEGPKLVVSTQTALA
T3 sequence (P22629 37-163 limits assumed): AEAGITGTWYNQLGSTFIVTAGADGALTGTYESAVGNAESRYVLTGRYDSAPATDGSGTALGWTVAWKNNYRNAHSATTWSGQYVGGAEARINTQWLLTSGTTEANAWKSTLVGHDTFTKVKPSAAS

B1: phage clone displaying the minimized peptide SEQ ID NO: 2 (peptide, not shown: large carriers)
peptide: GSYWYQVWF
modifications: also: displayed on phage as P3 coat protein fusion, fusion limits and linker not given here
no binding: BSA | avidin | streptavidin

Source: patent US20210054042A1 (UNIVERZA V LJUBLJANI, published 2021)
